# Test results: patent publication US20210107983A1 (Boehringer Ingelheim, published 2021)
# Positions count from the first letter of the chain named.
# T1: human B7H6 on HCT-15 cells (human, UniProt Q68D85 25-454)
# T1 sequence (looked up): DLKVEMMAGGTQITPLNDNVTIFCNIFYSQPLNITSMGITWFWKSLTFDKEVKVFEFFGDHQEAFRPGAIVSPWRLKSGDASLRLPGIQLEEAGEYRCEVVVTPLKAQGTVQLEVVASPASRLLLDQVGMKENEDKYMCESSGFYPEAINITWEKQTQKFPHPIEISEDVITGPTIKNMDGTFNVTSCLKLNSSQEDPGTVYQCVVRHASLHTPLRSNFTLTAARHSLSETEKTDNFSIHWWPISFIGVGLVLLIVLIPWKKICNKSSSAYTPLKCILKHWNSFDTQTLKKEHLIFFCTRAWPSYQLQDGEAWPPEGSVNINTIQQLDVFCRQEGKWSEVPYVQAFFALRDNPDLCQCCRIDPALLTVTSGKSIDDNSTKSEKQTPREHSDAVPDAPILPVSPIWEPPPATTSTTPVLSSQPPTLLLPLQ
# T2: Cyno B7H6-His (cynomolgus monkey)
# T2 construct: also called CyB7H6; cyB7-H6
# T2 chain: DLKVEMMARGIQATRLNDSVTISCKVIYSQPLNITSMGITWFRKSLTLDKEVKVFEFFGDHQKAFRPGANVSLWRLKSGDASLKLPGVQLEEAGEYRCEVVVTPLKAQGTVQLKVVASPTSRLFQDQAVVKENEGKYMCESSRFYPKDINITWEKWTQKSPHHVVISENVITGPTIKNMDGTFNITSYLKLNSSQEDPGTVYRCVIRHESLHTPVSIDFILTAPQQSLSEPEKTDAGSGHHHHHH
# B1: B7H6#11/CD3#1 (bispecific antibody)
# chain 1: not shown
# chain 2: EAVVTQEPSLTVSPGGTVTLTCRSSTGAVTTSNYANWVQEKPGQLPRGLIGGTNKRAPWVPARFSGSLLGGKAALTLSGAQPEDEAEYFCALWYSNLWVFGGGTKLTVLGQPKAAPSVTLFPPSSEELQANKATLVCLISDFYPGAVKVAWKADGSPVNTGVETTTPSKQSNNKYAASSYLSLTPEQWKSHRSYSCQVTHEGSTVEKTVAPAECSGGGGSEGKSSGSGSESKSTEGKSSGSGSESKSTGGGGSEVQLVESGGGLVQPGGSLKLSCAASGFTFNTYAMNWVRQAPGKGLEWVARIRSKYNNYATYYADSVKDRFTISRDDSKNTAYLQMNNLKTEDTAVYYCVRHGNFGNSYVSWFAYWGQGTLVTVSAASTKGPSVFPLAPSSKSTSGGTAALGCLVKDYFPEPVTVSWNSGALTSGVHTFPAVLQSSGLYSLSSVVTVPSSSLGTQTYICNVNHKPSNTKVDKRVEPKSCDKTHTCPPCPAPEAAGGPSVFLFPPKPKDTLMISRTPEVTCVVVDVSHEDPEVKFNWYVDGVEVHNAKTKPREEQYNSTYRVVSVLTVLHQDWLNGKEYKCKVSNKALPAPIEKTISKAKGQPREPQVYTLPPSREEMTKNQVSLSCAVKGFYPSDIAVEWESNGQPENNYKTTPPVLDSDGSFFLVSKLTVDKSRWQQGNVFSCSVMHEALHNRFTQKSLSLSPG
# notes: scFab-Fc heterodimer, one B7H6 chain and one CD3 chain
# B2: B7H6#24/CD3#1 (bispecific antibody, human IgG1, kappa, lambda, L234A L235A)
# chain 1: DIQMTQSPSSLSASVGDRVTITCKASQNVGKYVAWYQQKPGKAPKSLIYSASNRYDAVPSRFSGSGSGTDFTLTISSLQPEDFTTYYCQQYISYPLTFGAGTKLEIKRTVAAPSVFIFPPSDEQLKSGTASVVCLLNNFYPREAKVQWKVDNALQSGNSQESVTEQDSKDSTYSLSSTLTLSKADYEKHKVYACEVTHQGLSSPVTKSFNRGECGGGGSEGKSSGSGSESKSTEGKSSGSGSESKSTGGGGSQVQLVQSGAEVKKPGASVKVSCKASGYTFTNYWMNWMRQAPGQGLEWMGGIYLSGDSTDYNEKFKGRVTMTVDTSTSTVYMELSSLRSEDTAVYYCTRRGDYFGDFWGQGTLVTVSSASTKGPSVFPLAPSSKSTSGGTAALGCLVKDYFPEPVTVSWNSGALTSGVHTFPAVLQSSGLYSLSSVVTVPSSSLGTQTYICNVNHKPSNTKVDKRVEPKSCDKTHTCPPCPAPEAAGGPSVFLFPPKPKDTLMISRTPEVTCVVVDVSHEDPEVKFNWYVDGVEVHNAKTKPREEQYNSTYRVVSVLTVLHQDWLNGKEYKCKVSNKALPAPIEKTISKAKGQPREPQVYTLPPSREEMTKNQVSLWCLVKGFYPSDIAVEWESNGQPENNYKTTPPVLDSDGSFFLYSKLTVDKSRWQQGNVFSCSVMHEALHNHYTQKSLSLSPG
# chain 2: B1 chain 2
# notes: as for B1
# B3: B7H6#23/CD3#1 (bispecific antibody, human IgG1, kappa, lambda, L234A L235A)
# chain 1: B2 chain 1 with T84A, Y87F, N283S, R290K, M300I, D308E, R319K
# chain 2: B1 chain 2
# notes: as for B1
# B4: B7H6#14/CD3#3 (bispecific antibody, human IgG1, kappa, L234A L235A)
# chain 1: B2 chain 1 with A57G, T84A, Y87F, R290K, M300I, S306N, R319K
# chain 2: not shown
# notes: scFab-Fc heterodimer
# B5: B7H6#23/CD3#2 (bispecific antibody, human IgG1, kappa, L234A L235A)
# chain 1: B2 chain 1 with T84A, Y87F, N283S, R290K, M300I, D308E, R319K
# chain 2: not shown
# notes: scFab-Fc heterodimer
# B6: B7H6#14/CD3#6 (bispecific antibody, human IgG1, kappa, L234A L235A)
# chain 1: B2 chain 1 with A57G, T84A, Y87F, R290K, M300I, S306N, R319K
# chain 2: not shown
# notes: scFab-Fc heterodimer
# B7: B7H6#14/CD3#5 (bispecific antibody, human IgG1, kappa, L234A L235A)
# chain 1: B2 chain 1 with A57G, T84A, Y87F, R290K, M300I, S306N, R319K
# chain 2: not shown
# notes: scFab-Fc heterodimer
# Tests used:
# [1] = biological target: T1, human B7H6 on HCT-15 cells; assay: cell-based or functional assay
# [2] = biological target: T3, Fc-His-tagged human B7H6 ECD (human); assay: ELISA, plate coated with Fc-His-tagged human B7H6 ECD, anti-human IgG F(ab')2-peroxidase, TMB
# T3 construct: also called huB7H6-ECD-Fc-His; recombinant human B7H6 ECD
# Procedure: To assess binding of B7H6/CD3 binding proteins to recombinant human Fc-His-tagged B7H6 ECD and human Fc-His-tagged Ala-mutated B7H6 extracellular proteins as described in Example 3, MediSorp™ plates (Nunc, 467320) were coated with […] recombinant proteins overnight at 4° C. The next day, plates were blocked with 0.5% bovine serum albumin (BSA) in phosphate buffered saline (PBS) for 1 hour at room temperature (RT). Subsequently plates were washed with […] containing 0.05% TWEEN®20 viscous liquid and B7H6/CD3 binding proteins were incubated at concentrations ranging from 0.00001 to 10 μg/ml. After an additional washing step, bound B7H6/CD3 binding proteins were detected by a peroxidase conjugated goat anti-human IgG F(ab′)₂-specific secondary antibody (Jackson Immunoresearch) and visualized by TMB substrate solution (Bender Med Systems).
# Cyno B7H6-His [3] = biological target: T2, Cyno B7H6-His; assay: ratio of SPR KDs cyno/human
# [4] = biological target: T4, chicken egg white lysozyme (chicken, UniProt P00698 19-147); assay: SPR, 1 µM binder over immobilized lysozyme
# T4 construct: unrelated positively charged protein, amine-coupled to the chip; also called Lysozyme (positive)
# T4 sequence (P00698 19-147): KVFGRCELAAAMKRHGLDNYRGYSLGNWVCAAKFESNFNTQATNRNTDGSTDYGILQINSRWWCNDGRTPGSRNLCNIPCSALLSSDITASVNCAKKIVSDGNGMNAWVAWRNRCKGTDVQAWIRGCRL
# Method in brief: (§1)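 Non-specific binding tested with samples at 1 μM in HBS-EP at 25 °C, 5 μL/min, over lysozyme or trypsin inhibitor amine-coupled to CM5 chip (3000–5000 RU). Association 10 min, dissociation 15 min.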
# Human CD3 E+G HuFc-6xHis = biological target: T5, Human CD3 E+G HuFc-6xHis (human); assay: SPR, CD3E+G-hFc immobilized, binder analyte
# T5 construct: also called HuCD3E+G-hFc; huCD3
# T5 sequence (chain, as listed by the source limits assumed): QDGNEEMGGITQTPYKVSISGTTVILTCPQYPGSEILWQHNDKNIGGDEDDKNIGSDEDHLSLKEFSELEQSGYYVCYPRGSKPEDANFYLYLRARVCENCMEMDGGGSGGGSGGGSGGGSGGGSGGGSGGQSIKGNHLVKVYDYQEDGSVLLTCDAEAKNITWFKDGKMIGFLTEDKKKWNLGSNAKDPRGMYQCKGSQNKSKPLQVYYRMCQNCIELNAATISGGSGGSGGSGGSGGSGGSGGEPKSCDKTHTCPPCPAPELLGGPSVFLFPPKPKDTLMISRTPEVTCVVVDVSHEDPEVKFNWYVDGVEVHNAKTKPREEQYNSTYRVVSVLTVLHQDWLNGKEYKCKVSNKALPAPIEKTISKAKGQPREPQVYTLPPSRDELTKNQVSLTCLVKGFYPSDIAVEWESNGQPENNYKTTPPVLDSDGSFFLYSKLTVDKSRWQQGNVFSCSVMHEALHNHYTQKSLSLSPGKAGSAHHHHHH
# Method in brief: (§2)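 On a ProteOn XPR36, human and cyno CD3E+G-hFc were amine-coupled to a GLM chip at 0.4, 0.2 and 0.1 μg/mL in 10 mM acetate pH 4.5. B7H6/CD3 binding protein (0–100 nM) flowed in HBS-EP+ at 30 μL/min, with 300 s association and 600 s dissociation. Interspot and blank responses were subtracted.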
# Cyno B7H6-His [5] = biological target: T2, Cyno B7H6-His; assay: SPR, binder captured on Protein A/G, B7H6 analyte
# Method in brief: (§3)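 B7H6/CD3 binder captured (~700 RU) on a Protein A/G CM5 surface in HBS-EP+. Human or cyno B7H6 injected at 0–100 nM and human B7H1 at 0 nM and 1 μM, 300 s association and 1200 s dissociation. Data double-referenced against the reference flow cell and blank.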
# Human B7H1 = biological target: T6, Human B7H1 (human, UniProt Q9NZQ7 20-239); assay: SPR, binder captured on Protein A/G, HuB7H1 analyte
# T6 construct: also called HuB7H1; huB7-H1
# T6 sequence (Q9NZQ7 other isoform, or with tags, fused parts or gaps limits assumed): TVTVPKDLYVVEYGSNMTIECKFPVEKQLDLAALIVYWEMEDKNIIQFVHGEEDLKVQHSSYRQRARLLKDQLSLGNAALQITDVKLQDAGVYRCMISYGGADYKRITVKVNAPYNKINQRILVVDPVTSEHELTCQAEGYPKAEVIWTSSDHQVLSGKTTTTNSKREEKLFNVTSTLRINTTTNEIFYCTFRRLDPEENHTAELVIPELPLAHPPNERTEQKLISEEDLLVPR
# Method in brief: as §3
# [6] = biological target: T7, trypsin inhibitor from Glycine max soybean (Glycine max (soybean)); assay: SPR, 1 µM binder over immobilized trypsin inhibitor
# T7 construct: unrelated negatively charged protein, amine-coupled to the chip
# T7 sequence (P01070 25-205): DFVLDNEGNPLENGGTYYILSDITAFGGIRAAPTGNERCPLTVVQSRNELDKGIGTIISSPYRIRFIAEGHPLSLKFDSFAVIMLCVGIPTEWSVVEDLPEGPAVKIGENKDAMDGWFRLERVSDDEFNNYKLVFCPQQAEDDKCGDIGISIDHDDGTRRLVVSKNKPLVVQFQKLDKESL
# Method in brief: as §1
# Cyno CD3 E+G HuFc-6xHis [7] = biological target: T8, Cyno CD3 E+G HuFc-6xHis (cynomolgus monkey); assay: ratio of SPR KDs cyno/human
# T8 construct: also called CyCD3E+G-hFc; cyCD3
# T8 sequence (chain, as listed by the source limits assumed): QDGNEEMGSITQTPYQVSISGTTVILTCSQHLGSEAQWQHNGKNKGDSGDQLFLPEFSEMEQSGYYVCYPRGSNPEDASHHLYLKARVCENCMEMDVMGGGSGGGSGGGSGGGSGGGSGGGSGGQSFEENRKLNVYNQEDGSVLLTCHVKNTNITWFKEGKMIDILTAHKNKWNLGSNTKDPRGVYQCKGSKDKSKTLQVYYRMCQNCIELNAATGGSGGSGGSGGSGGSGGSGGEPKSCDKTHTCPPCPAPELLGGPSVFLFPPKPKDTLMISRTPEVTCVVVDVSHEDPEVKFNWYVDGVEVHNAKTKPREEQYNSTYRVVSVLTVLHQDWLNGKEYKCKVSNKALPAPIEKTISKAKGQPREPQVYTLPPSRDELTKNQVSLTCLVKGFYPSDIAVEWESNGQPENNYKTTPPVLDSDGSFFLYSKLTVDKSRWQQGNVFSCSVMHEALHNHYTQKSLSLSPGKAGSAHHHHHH
# Cyno CD3 E+G HuFc-6xHis [8] = biological target: T8, Cyno CD3 E+G HuFc-6xHis; assay: SPR, CD3E+G-hFc immobilized, binder analyte
# Method in brief: as §2
Binder,"EC50 [nM], 72 hour cytotoxicity assay, non-stimulated T-cells (Donor #1) as effector cells, HCT-15 cells as target cells [1] [nM]",EC50 (read off the curve) [2] [µg/mL],cy/hu B7-H6 (Cyno B7H6-His [3]),Non-specific binding (RU) [4] [RU],Kd (Human CD3 E+G HuFc-6xHis) [nM],Kd (Cyno B7H6-His [5]) [nM],binding result (Human B7H1),Non-specific binding (RU) [6] [RU],cy/hu CD3 (Cyno CD3 E+G HuFc-6xHis [7]),Kd (Cyno CD3 E+G HuFc-6xHis [8]) [nM]
B1,0.77,~0.05,,,,,,,,
B2,,,1.7,7.9,7.8,3.1,no binding (tested: 1 µM),43.5,,
B3,,,0.9,8.1,5.5,1.2,no binding (tested: 1 µM),45.7,,
B4,,,0.9,12.4,4.8,1.1,no binding (tested: 1 µM),26.4,1.5,7.1
B5,,,1.1,37.8,10.4,2,no binding (tested: 1 µM),47.8,1,10
B6,,,2.1,15.7,4.1,0.9,no binding (tested: 1 µM),34,1.4,5.7
B7,,,1.1,16.2,4.3,1,no binding (tested: 1 µM),110,1.2,5.2
